B1: Pistol ribozyme (parent)
chain: GGGUCGUUGUUCCAUAAUCGCGUGGAUAUGGCACGCAAGUUUCUACCGGGCACCGUAAAUGUCCGACUGGAGCCGUUCGGGCGGCUAUAAACAGACCUCAGGCCCGAAGCGUGGCGGCACCUGCCGCCGGUGGUAAAAAAGAUCGGAAGAGCACACGUCU

Variants of: B1
Experiment: aptazyme ON/OFF ratio, guanine; higher = stronger switching; co-transcriptional cleavage with and without guanine

Variant | aptazyme ON/OFF ratio
U7C U8C G9U U11G C12G | 1.19
U7C U8C G9U U11G C12A | 1.19
U7C U8C G9U U11G C12U | 1.19
U7C U8C U11G C12U C13U | 1.22
U7C U8C U11G C12U C13G | 1.11
U7C U8C U11G C12U C13A | 1.14
U7C U8C U10G U11A C12U C13U | 1.21
U7C U8C U10G U11A C12U C13A | 1.16
U7C U8C U10G U11A C12U C13G | 1.1
U7C U8C G9U U11A C12A C13G | 1.1
U7C U8C G9U U11A C12A C13U | 1.28
U7C U8C G9U U11A C12A C13A | 1.17
U7C U8C U10A U11G C13U | 1.18
U7C U8C U10A U11G C13A | 1.25
U7C U8C U10A U11G C13G | 1.18
U7C U8C U10C U11A C12U | 1.32
U7C U8C U10C U11A C12A | 1.31
U7C U8C U10C U11A C12G | 1.05
U7C U8C G9U U10G U11G C12A C13A | 1.01
U7C U8C G9U U10G U11G C12A C13G | 1.09
U7C U8C G9U U10G U11G C12A C13U | 1.1

Variant | aptazyme ON/OFF ratio
U7C U8C U10C U11G C12A | 1.38
U7C U8C U10C U11G C12U | 1.2
U7C U8C U10C U11G C12G | 1.18
U7C U8C U10A C12G C13U | 1.07
U7C U8C U10A C12G C13G | 1.12
U7C U8C U10A C12G C13A | 1.12
U7C U8C U10G U11G C12U C13U | 1.08
U7C U8C U10G U11G C12U C13G | 1.12
U7C U8C U10G U11G C12U C13A | 1.1
U7C U8C U10C C12U C13U | 1.45
U7C U8C U10C C12U C13A | 1.35
U7C U8C U10C C12U C13G | 1.34
U7C U8C U11C C13A | 1.24
U7C U8C U11C C13U | 1.3
U7C U8C U11C C13G | 1.12
U7C U8C U11A C12G C13G | 1.12
U7C U8C U11A C12G C13A | 1.13
U7C U8C U11A C12G C13U | 1.12
U7C U8C U10G U11A C12U | 1.12
U7C U8C U10G U11A C12A | 1.3
U7C U8C U10G U11A C12G | 1.14

Variant | aptazyme ON/OFF ratio
U7C U8C U10G U11G C12A | 1.26
U7C U8C U10G U11G C12G | 1.2
U7C U8C U10G U11G C12U | 1.22
U7C U8C U10G U11G C13U | 1.16
U7C U8C U10G U11G C13G | 1.11
U7C U8C U10G U11G C13A | 1.24
U7C U8C U11G C12A C13U | 1.2
U7C U8C U11G C12A C13A | 1.14
U7C U8C U11G C12A C13G | 1.11
U7C U8C G9U U10G U11G C12U C13G | 1.09
U7C U8C G9U U10G U11G C12U C13U | 1.08
U7C U8C G9U U10G U11G C12U C13A | 1.08
U7C U8C G9U U10G U11C C12U | 1.25
U7C U8C G9U U10G U11C C12G | 1.24
U7C U8C G9U U10G U11C C12A | 1.17
U7C U8C U11C C12U C13G | 1.2
U7C U8C U11C C12U C13A | 1.37
U7C U8C U11C C12U C13U | 1.43
U7C U8C G9U U10G U11C C12A C13A | 1.18
U7C U8C G9U U10G U11C C12A C13G | 1.07
U7C U8C G9U U10G U11C C12A C13U | 1.1

Variant | aptazyme ON/OFF ratio
U7C U8C G9U U10G U11G C12G C13U | 1.06
U7C U8C G9U U10G U11G C12G C13G | 1.06
U7C U8C G9U U10G U11G C12G C13A | 1.1
U7C U8C G9U U11C C12A | 1.17
U7C U8C G9U U11C C12G | 1.22
U7C U8C G9U U11C C12U | 1.04
U7C U8C G9U U11G C13U | 1.16
U7C U8C G9U U11G C13A | 1.21
U7C U8C G9U U11G C13G | 1.05
U7C U8C U11C C12A C13U | 1.28
U7C U8C U11C C12A C13A | 1.3
U7C U8C U11C C12A C13G | 1.18
U7C U8C G9U U11C C12G C13U | 1.08
U7C U8C G9U U11C C12G C13A | 1.12
U7C U8C G9U U11C C12G C13G | 1.12
U7C U8C U10G U11C C12U C13G | 1.11
U7C U8C U10G U11C C12U C13A | 1.2
U7C U8C U10G U11C C12U C13U | 1.29
U7C U8C U10G C13G | 1.08
U7C U8C U10G C13U | 1.12
